Results as given in patent US20210388087A1 (Chugai, published 2021).
Positions count from the first letter of the chain named. Values belong to the binder of their own block, whether it stands above or below them.

What was measured:
Human CD3eg linker = target: T1, Human CD3eg linker (human); experiment: SPR Biacore T200, 25 C, Ab captured on anti-human Fc, antigen as analyte;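 also: Anti-Fc amine-coupled to a CM4 chip, recombinant human CD3 flowed over in 20 mM ACES buffer pH 7.4 with 150 mM NaCl and 0.05% Tween 20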
T1 construct: Single chain: CD3 epsilon and gamma subunits joined by a 29-mer linker, Flag-tag at the C-terminus; also called recombinant human CD3
T1 chain: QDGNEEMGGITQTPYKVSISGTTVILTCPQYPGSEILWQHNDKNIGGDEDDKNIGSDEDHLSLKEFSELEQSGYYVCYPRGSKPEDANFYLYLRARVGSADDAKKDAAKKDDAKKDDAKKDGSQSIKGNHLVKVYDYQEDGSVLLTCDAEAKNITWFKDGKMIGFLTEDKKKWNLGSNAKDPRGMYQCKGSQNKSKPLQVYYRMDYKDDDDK
Method: (§1) Binding affinity of Dual-Fab antibodies (Dual-Ig) to human CD3 were assessed at 25 degrees C. using Biacore T200 instrument (GE Healthcare). Anti-human Fc (GE Healthcare) was immobilized onto all flow cells of a CM4 sensor chip using amine coupling kit (GE Healthcare). Antibodies were captured onto the anti-Fc sensor surfaces, then recombinant human CD3 or CD137 was injected over the flow cell. All antibodies and analytes were prepared in ACES pH 7.4 containing 20 mM ACES, 150 mM NaCl, 0.05% Tween 20, 0.005% NaN3. Sensor surface was regenerated each cycle with 3M MgCl2. […] CD137 binding affinity assay was conducted in same condition except assay temperature was set at 37 degrees C.

Human CD137 ECD = target: T2, Human CD137 ECD (human); experiment: SPR Biacore T200, 37 C, Ab captured on anti-human Fc, antigen as analyte;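 also: recombinant human CD137 flowed over antibodies held by amine-coupled anti-human Fc on a CM4 chip, run in ACES pH 7.4 buffer with 150 mM NaCl and 0.05% Tween 20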
T2 construct: also called human CD137 extracellular domain; recombinant human CD137
Method: as §1

[1] = target: human CD137 on HDLM-2 cells (human, UniProt Q07011 24-255); experiment: cell-based or functional assay
Chain of human CD137 on HDLM-2 cells (Q07011 24-255): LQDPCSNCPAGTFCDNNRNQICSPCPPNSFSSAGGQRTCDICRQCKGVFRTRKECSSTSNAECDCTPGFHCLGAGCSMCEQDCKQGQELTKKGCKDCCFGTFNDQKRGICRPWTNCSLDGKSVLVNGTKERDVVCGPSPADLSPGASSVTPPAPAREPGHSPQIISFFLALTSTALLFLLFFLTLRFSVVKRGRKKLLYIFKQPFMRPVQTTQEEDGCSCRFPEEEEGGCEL

T2 sequence (chain, as listed by the source limits assumed): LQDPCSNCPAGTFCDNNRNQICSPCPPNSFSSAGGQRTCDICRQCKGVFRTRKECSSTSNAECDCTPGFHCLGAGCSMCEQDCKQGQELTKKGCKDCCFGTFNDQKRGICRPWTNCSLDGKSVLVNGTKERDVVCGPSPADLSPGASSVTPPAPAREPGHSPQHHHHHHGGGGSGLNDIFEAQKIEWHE

- Kd (Human CD3eg linker): 340 nM
- koff (Human CD3eg linker): 0.012 s⁻¹
- kon (Human CD3eg linker): 35400 M⁻¹ s⁻¹
B1: H183/L072 (antibody, V domains shown)
VH: QVQLVESGGGLVQPGRSLRLSCAASGFTFSNAWMHWVRQAPGKGLEWVAQIKDKGNAYAAYYAPSVKGRFTISRDDSKNSIYLQMNSLKTEDTAVYYCHYVHYASASTVLPAFGVDAWGQGTTVTVSS
VL: DIVMTQSPLSLPVTPGEPASISCQASQELVHMNRNTYLHWYQQKPGQAPRLLIYKVSNRFPGVPDRFSGSGSGTDFTLKISRVEAEDVGVYYCAQGTSVPFTFGQGTKLEIK
notes: Dual-Fab antibody (Dual-Ig), bivalent IgG; also called parental Dual-Fab H183L072; dBBDu183H/dBBDu072L

- Kd (Human CD137 ECD): 36.4 nM
- koff (Human CD137 ECD): 0.00047 s⁻¹
- kon (Human CD137 ECD): 12900 M⁻¹ s⁻¹
B2: H1652L0943 (antibody, V domains shown)
VH: B1 VH with T28V, A32V, M34F, K54Y, G55Y, A60D, K67E, V109L, F113E
VL: B1 VL with A25P, Q27E, L29V, R59L, S98H, V99H
notes: Dual-Ig, IgG; also called dBBDu183H1652/dBBDu072L0943

- Kd (Human CD3eg linker): 20.9 nM
- koff (Human CD3eg linker): 0.00142 s⁻¹
- kon (Human CD3eg linker): 68000 M⁻¹ s⁻¹
- Kd (Human CD137 ECD): 103 nM
- koff (Human CD137 ECD): 0.0011 s⁻¹
- kon (Human CD137 ECD): 10700 M⁻¹ s⁻¹
B3: H1610L0581 (antibody, V domains shown)
VH: B1 VH with T28V, A32V, G55W, V101I, V109L, F113E, V115I
VL: B1 VL with A25P, L29V, V99H
notes: Dual-Ig, IgG; also called H1610L581; dBBDu183H1610/dBBDu072L0581

- Kd (Human CD3eg linker): 43.8 nM
- koff (Human CD3eg linker): 0.00316 s⁻¹
- kon (Human CD3eg linker): 72000 M⁻¹ s⁻¹
- Kd (Human CD137 ECD): 530 nM
- koff (Human CD137 ECD): 0.00579 s⁻¹
- kon (Human CD137 ECD): 10900 M⁻¹ s⁻¹
B4: H1550L0918 (antibody, V domains shown)
VH: B1 VH with T28K, A32V, G55Y, V101I, V109L
VL: B1 VL with A25P, L29V, R34N, N35V, T36V, V99H
notes: Dual-Ig, IgG; also called H1550L918; dBBDu183H1550/dBBDu072L0918

- Kd (Human CD3eg linker): 157 nM
- koff (Human CD3eg linker): 0.0194 s⁻¹
- kon (Human CD3eg linker): 123000 M⁻¹ s⁻¹
- Kd (Human CD137 ECD): 111 nM
- koff (Human CD137 ECD): 0.00136 s⁻¹
- kon (Human CD137 ECD): 12200 M⁻¹ s⁻¹
B5: H0868L0581 (antibody, V domains shown)
VH: B1 VH with T28K, A32V, G55Y, V109L
VL: B1 VL with A25P, L29V, V99H
notes: Dual-Ig, IgG; also called H868L581; dBBDu183H0868/dBBDu072L0581

- Kd (Human CD3eg linker): 50.7 nM
- koff (Human CD3eg linker): 0.00253 s⁻¹
- kon (Human CD3eg linker): 50000 M⁻¹ s⁻¹
- Kd (Human CD137 ECD): 61.8 nM
- koff (Human CD137 ECD): 0.000801 s⁻¹
- kon (Human CD137 ECD): 13000 M⁻¹ s⁻¹
B6: H1610L0939 (antibody, V domains shown)
VH: B1 VH with T28V, A32V, G55W, V101I, V109L, F113E, V115I
VL: B1 VL with A25P, L29V, R59V, S98H, V99H
notes: Dual-Ig, IgG; also called H1610L939; dBBDu183H1610/dBBDu072L0939

- Kd (Human CD3eg linker): 110 nM
- koff (Human CD3eg linker): 0.0156 s⁻¹
- kon (Human CD3eg linker): 142000 M⁻¹ s⁻¹
- Kd (Human CD137 ECD): 86.8 nM
- koff (Human CD137 ECD): 0.00105 s⁻¹
- kon (Human CD137 ECD): 12100 M⁻¹ s⁻¹
B7: H1571L0581 (antibody, V domains shown)
VH: B1 VH with T28K, A32V, M34F, G55Y, A60T, V109L
VL: B1 VL with A25P, L29V, V99H
notes: Dual-Ig, IgG; also called dBBDu183H1571/dBBDu072L0581

- Kd (Human CD137 ECD): 64.8 nM
- koff (Human CD137 ECD): 0.000647 s⁻¹
- kon (Human CD137 ECD): 9980 M⁻¹ s⁻¹
B8: H1647L0581 (antibody, V domains shown)
VH: B1 VH with T28K, A32T, M34F, K54Y, G55Y, A57D, V109L, F113E
VL: B1 VL with A25P, L29V, V99H
notes: Dual-Ig, IgG; also called dBBDu183H1647/dBBDu072L0581

- Agonistic activity compared to B, antibody 6 ug/mL [1]: 19%
- Agonistic activity compared to B, antibody 30 ug/mL [1]: 24.2%
- Agonistic activity compared to Ctrl, antibody 6 ug/mL [1]: 66.1%
- Agonistic activity compared to Ctrl, antibody 30 ug/mL [1]: 91.7%
- hIL-6 (pg/mL), antibody 6 ug/mL [1]: 1680 pg/mL
- hIL-6 (pg/mL), antibody 30 ug/mL [1]: 1740 pg/mL
B9: GPC3 ERY22-dBBDu_186/L096 (bispecific antibody, human IgG1, kappa, L234A L235A, N297A)
heavy 1: DIVMTQSPLSLPVTPGEPASISCRSSQSLVHSNRNTYLHWYQQKPGQAPRLLIYKVSNRFSGVPDRFSGSGSGTDFTLKISRVEAEDVGVYYCSQNTHVPPTFGQGTKLEIKSSASTKGPSVFPLAPSSKSTSGGTAALGCLVKDYFPEPVTVSWNSGALTSGVHTFPAVLQSSGLYSLSSVVTVPSSSLGTQTYICNVNHKPSNTKVDKKVEPKSCDKTHTCPPCPAPEAAGGPSVFLFPPKPKDTLMISRTPEVTCVVVDVSHEDPEVKFNWYVDGVEVHNAKTKPREEQYASTYRVVSVLTVLHQDWLNGKEYKCKVSNKALPAPIEKTISKAKGQPREPQVCTLPPSRDELTKNQVSLWCLVKGFYPSDIAVEWESNGQPENNYKTTPPVLDSDGSFFLYSKLTVDKSRWQQGNVFSCSVMHEALHNHYTQKSLSLSPHHHHHHHH
light 1: QVQLVQSGAEVKKPGASVKVSCKASGYTFTDYEMHWIRQPPGQGLEWIGAIDPKTGDTAYSQKFKGRVTLTADKSTSTAYMELSSLTSEDTAVYYCTRFYSYTYWGQGTLVTVSSASVAAPSVFIFPPSDEQLKSGTASVVCLLNNFYPREAKVQWKVDNALQSGNSQESVTEQDSKDSTYSLSSTLTLSKADYEKHKVYACEVTHQGLSSPVTKSFNRGEC
heavy 2: QVQLVESGGGLVQPGRSLRLSCAASGFTFSNAWMHWVRQAPGKGLEWVAQIKDRSNQYATYYAPSVKGRFTISRDDSKNSIYLQMNSLKTEDTAVYYCHYVHYAQASTVLPAFGVDAWGQGTTVTVSSASTKGPSVFPLAPSSKSTSGGTAALGCLVKDYFPEPVTVSWNSGALTSGVHTFPAVLQSSGLYSLSSVVTVPSSSLGTQTYICNVNHKPSNTKVDKKVEPKSCDKTHTCPPCPAPEAAGGPSVFLFPPKPKDTLMISRTPEVTCVVVDVSHEDPEVKFNWYVDGVEVHNAKTKPREEQYASTYRVVSVLTVLHQDWLNGKEYKCKVSNKALPAPIEKTISKAKGQPREPQVYTLPPSRCELTKNQVSLSCAVKGFYPSDIAVEWESNGQPENNYKTTPPVLDSDGSFFLVSKLTVDKSRWQQGNVFSCSVMHEALHNHYTQKSLSLSPDYKDDDDK
light 2: DIVMTQSPLSLPVTPGEPASISCRTSQELVHINRYIFLHWYQQKPGQAPRLLIYKVYNRFQGVPDRFSGSGSGTDFTLKISRVEAEDVGVYYCAQGTSVPYTFGQGTKLEIKRTVAAPSVFIFPPSDEQLKSGTASVVCLLNNFYPREAKVQWKVDNALQSGNSQESVTEQDSKDSTYSLSSTLTLSKADYEKHKVYACEVTHQGLSSPVTKSFNRGEC

- Agonistic activity compared to B, antibody 6 ug/mL [1]: 6.92%
- Agonistic activity compared to B, antibody 30 ug/mL [1]: 20.4%
- Agonistic activity compared to Ctrl, antibody 6 ug/mL [1]: 24%
- Agonistic activity compared to Ctrl, antibody 30 ug/mL [1]: 77.3%
- hIL-6 (pg/mL), antibody 6 ug/mL [1]: 1260 pg/mL
- hIL-6 (pg/mL), antibody 30 ug/mL [1]: 1610 pg/mL
B10: GPC3 ERY22-dBBDu_189/L119 (bispecific antibody, human IgG1, kappa, L234A L235A, N297A)
heavy 1: B9 heavy 1
light 1: B9 light 1
heavy 2: B9 heavy 2 with V48I, T108S, V109L, A112S
light 2: B9 light 2 with R24T, T25A, Y35F, Y57S, Q61I, T97S, S98Q, Y101F

- Agonistic activity compared to B, antibody 6 ug/mL [1]: 13.9%
- Agonistic activity compared to B, antibody 30 ug/mL [1]: 24.6%
- Agonistic activity compared to Ctrl, antibody 6 ug/mL [1]: 48.3%
- Agonistic activity compared to Ctrl, antibody 30 ug/mL [1]: 93.5%
- hIL-6 (pg/mL), antibody 6 ug/mL [1]: 1500 pg/mL
- hIL-6 (pg/mL), antibody 30 ug/mL [1]: 1750 pg/mL
B11: GPC3 ERY22-dBBDu_186/L098 (bispecific antibody, human IgG1, kappa, L234A L235A, N297A)
heavy 1: B9 heavy 1
light 1: B9 light 1
heavy 2: B9 heavy 2
light 2: B9 light 2 with R24A, T25A, Q27E, Y57S, Q61I, T97S, S98Q, Y101F

- Agonistic activity compared to B, antibody 6 ug/mL [1]: 13.2%
- Agonistic activity compared to B, antibody 30 ug/mL [1]: 19.4%
- Agonistic activity compared to Ctrl, antibody 6 ug/mL [1]: 45.8%
- Agonistic activity compared to Ctrl, antibody 30 ug/mL [1]: 73.6%
- hIL-6 (pg/mL), antibody 6 ug/mL [1]: 1480 pg/mL
- hIL-6 (pg/mL), antibody 30 ug/mL [1]: 1570 pg/mL
B12: GPC3 ERY22-dBBDu_186/L106 (bispecific antibody, human IgG1, kappa, L234A L235A, N297A)
heavy 1: B9 heavy 1
light 1: B9 light 1
heavy 2: B9 heavy 2
light 2: B9 light 2 with R24S, Q27E, V30L, Y35F, Y57A, Q61M, T97S, S98Q, Y101F

- Agonistic activity compared to B, antibody 6 ug/mL [1]: 8.28%
- Agonistic activity compared to B, antibody 30 ug/mL [1]: 19.2%
- Agonistic activity compared to Ctrl, antibody 6 ug/mL [1]: 28.7%
- Agonistic activity compared to Ctrl, antibody 30 ug/mL [1]: 72.9%
- hIL-6 (pg/mL), antibody 6 ug/mL [1]: 1300 pg/mL
- hIL-6 (pg/mL), antibody 30 ug/mL [1]: 1570 pg/mL
B13: GPC3 ERY22-dBBDu_189/L116 (bispecific antibody, human IgG1, kappa, L234A L235A, N297A)
heavy 1: B9 heavy 1
light 1: B9 light 1
heavy 2: B9 heavy 2 with V48I, T108S, V109L, A112S
light 2: B9 light 2 with R24S, T25S, I32A, Y35Q, F37Y, Y57A, Q61P, S98Q, Y101F
